The test addresses GMPCPP microtubules containing 7% rhodamine-tubulin. Nature of the test: single-molecule TIRF microscopy on immobilised microtubules; GMPCPP microtubules held on the coverslip by anti-β-tubulin antibodies, motors in solution (CENP-E483-2mNeon 50 nM, CENP-E483LZ-2mNeon 5 nM, CENP-E754-2mNeon 3.5 nM, CENP-EFL-mNeon 12.5 nM; landing rates at 3.5 nM); 80 mM PIPES pH 6.9, 5 mM MgCl2, 2 mM ATP, 1 mM DTT, oxygen scavenger mix; 30°C; residency time is the decay constant of a single-exponential fit.

Regarding “CENP-E483LZ-2mNeon (from UniProt Q02224 1-483)”, the residency time on the microtubule is 6.36 s.

Turning to “full-length human CENP-E-mNeonGreen, Q02224 1-2701”, the landing rate (events µm^−1 min^−1) was found to be 0.147 and the residency time on the microtubule stood at 37.1 s.

The values are drawn from PMC8905165.
